The target in data set [1] is T1, Angiopoietin-2 (Ang2), active human (human, UniProt O15123 19-496). Briefly: SPR; kon 6.03e3 M-1s-1; koff 0.61e-3 s-1; SPR imaging, biotinylated RNA on streptavidin/BAT-PEG chip, 0.5 uM Ang2 in TBS pH 7.4, 9 min association, 6 min TBS rinse; temperature not stated. The settings on record: protein: commercial; label: 5' biotin; single strand. (In general: In SPR one partner is held on a chip, and binding of the other changes the refractive index at the surface.)

Data set [2] deals with T1, Angiopoietin-2 (Ang2), active human. Kind of data set: SPR; kon 8.22e3 M-1s-1; koff 0.97e-3 s-1; SPR imaging, biotinylated RNA on streptavidin/BAT-PEG chip, 0.5 uM Ang2 in TBS pH 7.4, 9 min association, 6 min TBS rinse; temperature not stated. Particulars: protein: commercial; label: 5' biotin; single strand.
For data set [3] the target is unchanged. Kind of data set: SPR; kon 4.07e3 M-1s-1; koff 0.79e-3 s-1; SPR imaging, biotinylated RNA on streptavidin/BAT-PEG chip, 0.5 uM Ang2 in TBS pH 7.4, 9 min association, 6 min TBS rinse; temperature not stated. Particulars: protein: commercial; label: 5' biotin; single strand.
The target is the same in data set [4]. Kind of data set: SPR; kon 1.66e3 M-1s-1; koff 4.99e-3 s-1; described as very weak, partly nonspecific adsorption; SPR imaging, biotinylated RNA on streptavidin/BAT-PEG chip, 0.5 uM Ang2 in TBS pH 7.4, 9 min association, 6 min TBS rinse; temperature not stated. The settings on record: protein: commercial; label: 5' biotin; single strand.
Another data set deals with Angiopoietin-2 (human) (Homo sapiens (Human), UniProt O15123 19-496). Briefly: SPR; TBS pH 7.4, 25 C. Particulars: label: 5'-biotin (5'-A5 is a spacer).
Angiopoietin-2 (human), sequence (O15123 19-496): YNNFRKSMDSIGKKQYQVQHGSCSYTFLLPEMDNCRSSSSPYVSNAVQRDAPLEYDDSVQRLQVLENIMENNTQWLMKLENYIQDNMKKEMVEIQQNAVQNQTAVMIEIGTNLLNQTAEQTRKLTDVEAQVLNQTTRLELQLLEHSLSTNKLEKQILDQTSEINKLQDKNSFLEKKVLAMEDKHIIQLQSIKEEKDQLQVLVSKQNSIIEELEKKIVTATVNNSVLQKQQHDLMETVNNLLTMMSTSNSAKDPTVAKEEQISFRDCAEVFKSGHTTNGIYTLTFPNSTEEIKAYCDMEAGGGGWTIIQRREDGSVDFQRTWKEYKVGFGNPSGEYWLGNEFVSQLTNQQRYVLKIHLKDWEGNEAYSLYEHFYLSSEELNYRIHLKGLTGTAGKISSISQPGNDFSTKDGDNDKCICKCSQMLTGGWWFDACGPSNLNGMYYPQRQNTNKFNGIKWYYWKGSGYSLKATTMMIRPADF
For data set [5], the target named is T1, Angiopoietin-2 (Ang2), active human. Briefly: SPR; kon 10.02e3 M-1s-1; koff 1.39e-3 s-1; SPR imaging, biotinylated RNA on streptavidin/BAT-PEG chip, 0.5 uM Ang2 in TBS pH 7.4, 9 min association, 6 min TBS rinse; temperature not stated. The settings on record: protein: commercial; label: 5' biotin; single strand.

T1 sequence (O15123 19-496): as above

As for AAAAAGAGGACGAUGCCGACUAGCCUCAUCAGCUCAUGUCCCCCUC (ssRNA) [Seq15_12_35 (biotin-A5)], the Ka in data set [1] is 9.89 10^6 M^-1.
On to AAAAAGAGGACGAUGCGGAUUAGCCUCAUCAGCUCAUGUGCCGCUC (ssRNA) [Seq15_15_38 (biotin-A5)], for which the Ka in data set [2] was 8.47 10^6 M^-1.
As for AAAAAUUAACCAUCAGAUCAUGGCCCCUGCCCUCUCAAGCACCAC (ssRNA) [Seq2_12_35 (biotin-A5)], the Ka in data set [3] is 5.15 10^6 M^-1.
With AAAAAACUCGAACAUUUCCACUAACCAACCAUACUAAAGCACCGC (ssRNA) [Seq16 (biotin-A5), Ang1-specific aptamer], in data set [4], the Ka is 0.33 10^6 M^-1.
One may read the Kd as the equilibrium constant for the complex coming apart. The low end stands for a tighter complex, the high end for a looser complex. With AAAAAACUCGAACAUUUCCACUAACCAACCAUACUAAAGCACCGC (ssRNA) [Seq16 (Ang1 aptamer / negative control)], binding in the data set with Angiopoietin-2 (human) was put at a Kd of 3030 nM.
Take AAAAAACUAGCCUCAUCAGCUCAUGUGCCCCUCCGCCUGGAUCAC (ssRNA) [Seq1 (biotin-A5)]: the Ka in data set [5] was 7.23 10^6 M^-1.
AAAAAACUAGCCUCAUCAGCUCAUGUGCCCCUCCGCCUGGAUCAC (ssRNA) [Seq1]: the Kd in the data set with Angiopoietin-2 (human) was 138 nM.

Values taken from PMC4383501, “Computational Selection of RNA Aptamer against Angiopoietin-2 and Experimental Evaluation”.
